Reference: publication PMC10540216, “Activity Guided Azide-methyllysine Photo-trapping for Substrate Profiling of Lysine Demethylases” (Journal of the American Chemical Society, 2023)

B1: RBM10_HUMAN (protein, UniProt P98175 1-930, looked up)
RNA-binding protein 10: MEYERRGGRGDRTGRYGATDRSQDDGGENRSRDHDYRDMDYRSYPREYGSQEGKHDYDDSSEEQSAEDSYEASPGSETQRRRRRRHRHSPTGPPGFPRDGDYRDQDYRTEQGEEEEEEEDEEEEEKASNIVMLRMLPQAATEDDIRGQLQSHGVQAREVRLMRNKSSGQSRGFAFVEFSHLQDATRWMEANQHSLNILGQKVSMHYSDPKPKINEDWLCNKCGVQNFKRREKCFKCGVPKSEAEQKLPLGTRLDQQTLPLGGRELSQGLLPLPQPYQAQGVLASQALSQGSEPSSENANDTIILRNLNPHSTMDSILGALAPYAVLSSSNVRVIKDKQTQLNRGFAFIQLSTIVEAAQLLQILQALHPPLTIDGKTINVEFAKGSKRDMASNEGSRISAASVASTAIAAAQWAISQASQGGEGTWATSEEPPVDYSYYQQDEGYGNSQGTESSLYAHGYLKGTKGPGITGTKGDPTGAGPEASLEPGADSVSMQAFSRAQPGAAPGIYQQSAEASSSQGTAANSQSYTIMSPAVLKSELQSPTHPSSALPPATSPTAQESYSQYPVPDVSTYQYDETSGYYYDPQTGLYYDPNSQYYYNAQSQQYLYWDGERRTYVPALEQSADGHKETGAPSKEGKEKKEKHKTKTAQQIAKDMERWARSLNKQKENFKNSFQPISSLRDDERRESATADAGYAILEKKGALAERQHTSMDLPKLASDDRPSPPRGLVAAYSGESDSEEEQERGGPEREEKLTDWQKLACLLCRRQFPSKEALIRHQQLSGLHKQNLEIHRRAHLSENELEALEKNDMEQMKYRDRAAERREKYGIPEPPEPKRRKYGGISTASVDFEQPTRDGLGSDNIGSRMLQAMGWKEGSGLGRKKQGIVTPIEAQTRVRGSGLGARGSSYGVTSTESYKETLHKTMVTRFNEAQ
B2: RBM26_HUMAN (protein, UniProt Q5T8P6 1-1007, looked up)
RNA-binding protein 26: MVSKMIIENFEALKSWLSKTLEPICDADPSALAKYVLALVKKDKSEKELKALCIDQLDVFLQKETQIFVEKLFDAVNTKSYLPPPEQPSSGSLKVEFFPHQEKDIKKEEITKEEEREKKFSRRLNHSPPQSSSRYRENRSRDERKKDDRSRKRDYDRNPPRRDSYRDRYNRRRGRSRSYSRSRSRSWSKERLRERDRDRSRTRSRSRTRSRERDLVKPKYDLDRTDPLENNYTPVSSVPSISSGHYPVPTLSSTITVIAPTHHGNNTTESWSEFHEDQVDHNSYVRPPMPKKRCRDYDEKGFCMRGDMCPFDHGSDPVVVEDVNLPGMLPFPAQPPVVEGPPPPGLPPPPPILTPPPVNLRPPVPPPGPLPPSLPPVTGPPPPLPPLQPSGMDAPPNSATSSVPTVVTTGIHHQPPPAPPSLFTADTYDTDGYNPEAPSITNTSRPMYRHRVHAQRPNLIGLTSGDMDLPPREKPPNKSSMRIVVDSESRKRTIGSGEPGVPTKKTWFDKPNFNRTNSPGFQKKVQFGNENTKLELRKVPPELNNISKLNEHFSRFGTLVNLQVAYNGDPEGALIQFATYEEAKKAISSTEAVLNNRFIKVYWHREGSTQQLQTTSPKVMQPLVQQPILPVVKQSVKERLGPVPSSTIEPAEAQSASSDLPQNVTKLSVKDRLGFVSKPSVSATEKVLSTSTGLTKTVYNPAALKAAQKTLLVSTSAVDNNEAQKKKQEALKLQQDVRKRKQEILEKHIETQKMLISKLEKNKTMKSEDKAEIMKTLEVLTKNITKLKDEVKAASPGRCLPKSIKTKTQMQKELLDTELDLYKKMQAGEEVTELRRKYTELQLEAAKRGILSSGRGRGIHSRGRGAVHGRGRGRGRGRGVPGHAVVDHRPRALEISAFTESDREDLLPHFAQYGEIEDCQIDDSSLHAVITFKTRAEAEAAAVHGARFKGQDLKLAWNKPVTNISAVETEEVEPDEEEFQEESLVDDSLLQDDDEEEEDNESRSWRR
B3: CAND1_HUMAN (protein, UniProt Q86VP6 2-1230, looked up)
Cullin-associated …: ASASYHISNLLEKMTSSDKDFRFMATNDLMTELQKDSIKLDDDSERKVVKMILKLLEDKNGEVQNLAVKCLGPLVSKVKEYQVETIVDTLCTNMLSDKEQLRDISSIGLKTVIGELPPASSGSALAANVCKKITGRLTSAIAKQEDVSVQLEALDIMADMLSRQGGLLVNFHPSILTCLLPQLTSPRLAVRKRTIIALGHLVMSCGNIVFVDLIEHLLSELSKNDSMSTTRTYIQCIAAISRQAGHRIGEYLEKIIPLVVKFCNVDDDELREYCIQAFESFVRRCPKEVYPHVSTIINICLKYLTYDPNYNYDDEDEDENAMDADGGDDDDQGSDDEYSDDDDMSWKVRRAAAKCLDAVVSTRHEMLPEFYKTVSPALISRFKEREENVKADVFHAYLSLLKQTRPVQSWLCDPDAMEQGETPLTMLQSQVPNIVKALHKQMKEKSVKTRQCCFNMLTELVNVLPGALTQHIPVLVPGIIFSLNDKSSSSNLKIDALSCLYVILCNHSPQVFHPHVQALVPPVVACVGDPFYKITSEALLVTQQLVKVIRPLDQPSSFDATPYIKDLFTCTIKRLKAADIDQEVKERAISCMGQIICNLGDNLGSDLPNTLQIFLERLKNEITRLTTVKALTLIAGSPLKIDLRPVLGEGVPILASFLRKNQRALKLGTLSALDILIKNYSDSLTAAMIDAVLDELPPLISESDMHVSQMAISFLTTLAKVYPSSLSKISGSILNELIGLVRSPLLQGGALSAMLDFFQALVVTGTNNLGYMDLLRMLTGPVYSQSTALTHKQSYYSIAKCVAALTRACPKEGPAVVGQFIQDVKNSRSTDSIRLLALLSLGEVGHHIDLSGQLELKSVILEAFSSPSEEVKSAASYALGSISVGNLPEYLPFVLQEITSQPKRQYLLLHSLKEIISSASVVGLKPYVENIWALLLKHCECAEEGTRNVVAECLGKLTLIDPETLLPRLKGYLISGSSYARSSVVTAVKFTISDHPQPIDPLLKNCIGDFLKTLEDPDLNVRRVALVTFNSAAHNKPSLIRDLLDTVLPHLYNETKVRKELIREVEMGPFKHTVDDGLDIRKAAFECMYTLLDSCLDRLDIFEFLNHVEDGLKDHYDIKMLTFLMLVRLSTLCPSAVLQRLDRLVEPLRATCTTKVKANSVKQEFEKQDELKRSAMRAVAALLTIPEAEKSPLMSEFQSQISSNPELAAIFESIQKDSSSTNLESMDTS
B4: NOMO1_HUMAN (protein, UniProt Q15155 32-1222, looked up)
BOS complex subunit NOMO1: SEDIVVGCGGFVKSDVEINYSLIEIKLYTKHGTLKYQTDCAPNNGYFMIPLYDKGDFILKIEPPLGWSFEPTTVELHVDGVSDICTKGGDINFVFTGFSVNGKVLSKGQPLGPAGVQVSLRNTGTEAKIQSTVTQPGGKFAFFKVLPGDYEILATHPTWALKEASTTVRVTNSNANAASPLIVAGYNVSGSVRSDGEPMKGVKFLLFSSLVTKEDVLGCNVSPVPGFQPQDESLVYLCYTVSREDGSFSFYSLPSGGYTVIPFYRGERITFDVAPSRLDFTVEHDSLKIEPVFHVMGFSVTGRVLNGPEGDGVPEAVVTLNNQIKVKTKADGSFRLENITTGTYTIHAQKEHLYFETVTIKIAPNTPQLADIIATGFSVCGQISIIRFPDTVKQMNKYKVVLSSQDKDKSLVTVETDAHGSFCFKAKPGTYKVQVMVPEAETRAGLTLKPQTFPLTVTNRPMMDVAFVQFLASVSGKVSCLDTCGDLLVTLQSLSRQGEKRSLQLSGKVNAMTFTFDNVLPGKYKISIMHEDWCWKNKSLEVEVLEDDMSAVEFRQTGYMLRCSLSHAITLEFYQDGNGRENVGIYNLSKGVNRFCLSKPGVYKVTPRSCHRFEQAFYTYDTSSPSILTLTAIRHHVLGTITTDKMMDVTVTIKSSIDSEPALVLGPLKSVQELRREQQLAEIEARRQEREKNGNEEGEERMTKPPVQEMVDELQGPFSYDFSYWARSGEKITVTPSSKELLFYPPSMEAVVSGESCPGKLIEIHGKAGLFLEGQIHPELEGVEIVISEKGASSPLITVFTDDKGAYSVGPLHSDLEYTVTSQKEGYVLTAVEGTIGDFKAYALAGVSFEIKAEDDQPLPGVLLSLSGGLFRSNLLTQDNGILTFSNLSPGQYYFKPMMKEFRFEPSSQMIEVQEGQNLKITITGYRTAYSCYGTVSSLNGEPEQGVAMEAVGQNDCSIYGEDTVTDEEGKFRLRGLLPGCVYHVQLKAEGNDHIERALPHHRVIEVGNNDIDDVNIIVFRQINQFDLSGNVITSSEYLPTLWVKLYKSENLDNPIQTVSLGQSLFFHFPPLLRDGENYVVLLDSTLPRSQYDYILPQVSFTAVGYHKHITLIFNPTRKLPEQDIAQGSYIALPLTLLVLLAGYNHDKLIPLLLQLTSRLQGVRALGQAASDNSGPEDAKRQAKKQKTRRT
B5: RB12B_HUMAN (protein, UniProt Q8IXT5 1-1001, looked up)
RNA-binding protein 12B: MAVVIRLLGLPFIAGPVDIRHFFTGLTIPDGGVHIIGGEIGEAFIIFATDEDARRAISRSGGFIKDSSVELFLSSKAEMQKTIEMKRTDRVGRGRPGSGTSGVDSLSNFIESVKEEASNSGYGSSINQDAGFHTNGTGHGNLRPRKTRPLKAENPYLFLRGLPYLVNEDDVRVFFSGLCVDGVIFLKHHDGRNNGDAIVKFASCVDASGGLKCHRSFMGSRFIEVMQGSEQQWIEFGGNAVKEGDVLRRSEEHSPPRGINDRHFRKRSHSKSPRRTRSRSPLGFYVHLKNLSLSIDERDLRNFFRGTDLTDEQIRFLYKDENRTRYAFVMFKTLKDYNTALSLHKTVLQYRPVHIDPISRKQMLKFIARYEKKRSGSLERDRPGHVSQKYSQEGNSGQKLCIYIRNFPFDVTKVEVQKFFADFLLAEDDIYLLYDDKGVGLGEALVKFKSEEQAMKAERLNRRRFLGTEVLLRLISEAQIQEFGVNFSVMSSEKMQARSQSRERGDHSHLFDSKDPPIYSVGAFENFRHQLEDLRQLDNFKHPQRDFRQPDRHPPEDFRHSSEDFRFPPEDFRHSPEDFRRPREEDFRRPSEEDFRRPWEEDFRRPPEDDFRHPREEDWRRPLEEDWRRPLEEDFRRSPTEDFRQLPEEDFRQPPEEDLRWLPEEDFRRPPEEDWRRPPEEDFRRPLQGEWRRPPEDDFRRPPEEDFRHSPEEDFRQSPQEHFRRPPQEHFRRPPPEHFRRPPPEHFRRPPPEHFRRPPPEHFRRPPPEHFRRPPPEHFRRPPQEHFRRPPQEHFRRSREEDFRHPPDEDFRGPPDEDFRHPPDEDFRSPQEEDFRCPSDEDFRQLPEEDLREAPEEDPRLPDNFRPPGEDFRSPPDDFRSHRPFVNFGRPEGGKFDFGKHNMGSFPEGRFMPDPKINCGSGRVTPIKIMNLPFKANVNEILDFFHGYRIIPDSVSIQYNEQGLPTGEAIVAMINYNEAMAAIKDLNDRPVGPRKVKLTLL
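Note: lysates from HEK293T cells pretreated with a KDM4 inhibitor to raise proteome methylation, affinity-purified after ±UV, gel-resolved, trypsin-digested, with exclusive unique peptides per protein averaged per condition.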

These molecules were tested on KDM4A-I71AzF (assay: CASI: photo-crosslinking with HEK293T cell extracts, StrepTactin enrichment and LC-MS/MS proteomics). Settings: sheet "Final results but with 0.01".
Type: binding, human
For B1, the “Fold change (+UV/-UV)” value was 0. For B2, the “Fold change (+UV/-UV)” value was 0.3333. For B3, the “Fold change (+UV/-UV)” value was 0.3333. For B4, the “Fold change (+UV/-UV)” value was 0. B5 was tested, and the “Fold change (+UV/-UV)” value was 0.8462.
